Experimental data from PMC3142331.

Target: Mce1-(227–567) protein, RNA guanylyltransferase (GTase) domain of mouse mammalian capping enzyme (mouse) (UniProt O55236)
Assay: fluorescence polarisation

Mce1-(227–567) protein, RNA guanylyltransferase (GTase) domain of mouse mammalian capping enzyme (mouse), sequence (O55236 227-567): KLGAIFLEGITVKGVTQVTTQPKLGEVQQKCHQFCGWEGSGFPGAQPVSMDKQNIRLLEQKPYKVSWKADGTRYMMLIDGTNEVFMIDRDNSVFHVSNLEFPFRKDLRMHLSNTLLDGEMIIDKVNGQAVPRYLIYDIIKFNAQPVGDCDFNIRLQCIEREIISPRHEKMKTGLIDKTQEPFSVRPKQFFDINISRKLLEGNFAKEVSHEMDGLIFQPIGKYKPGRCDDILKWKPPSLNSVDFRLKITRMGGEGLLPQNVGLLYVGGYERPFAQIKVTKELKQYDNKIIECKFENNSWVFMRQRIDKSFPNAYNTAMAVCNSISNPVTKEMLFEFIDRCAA

A Ki of 160 µM was found for “unlabeled 11 aa phosphorylated CTD peptide (S2P3T4S5PP6S7Y1S2PP3T4S5)” in this work.
